CN115677858A (HEFEI HANKEMAB BIOTECHNOLOGY CO LTD; ANHUI ANKE …, dated 2023)

Columns and labels:
[1] = target: T1, 人PD-L1胞外段 (SEQ ID No.22 第19-238位)，带His标签 (human, UniProt Q9NZQ7 19-238); experiment: bridging ELISA: human PD-L1-His coated, bispecific antibody, then human CD137-mouse Fc, goat anti-mouse HRP
T1 construct: It may be the same preparation as m7; not shown: His tag

[2] = target: T2, 人PD-L1全长 (SEQ ID No.22)，表达于CHO-K1细胞 (human, UniProt Q9NZQ7 19-290); experiment: flow cytometry (FACS) on CHO-K1/hPD-L1 cells, goat anti-human FITC
T2 construct: The full-length entry was transfected; also called CHO-K1/hPD-L1; 细胞表面人PD-L1

[3] = target: T3, 人PD-L1胞外段 (SEQ ID No.22 第19-238位) (human, UniProt Q9NZQ7 19-238); experiment: ELISA, human PD-L1 extracellular domain coated, goat anti-human HRP
T3 construct: also called 人PD-L1抗原

[4] = target: T4, 人CD137全长 (SEQ ID No.19)，表达于细胞 (human, UniProt Q07011 24-255); experiment: flow cytometry (FACS) on CHO-K1/hCD137 cells, goat anti-human FITC; antibody at 27.77777778 nM
T4 construct: The full-length entry was transfected into CHO-K1 cells for FACS and into HEK293 cells for the reporter assay; also called CHO-K1/hCD137; 细胞表面人CD137

[5] = target: T4, 人CD137全长 (SEQ ID No.19)，表达于细胞; experiment: flow cytometry (FACS) on CHO-K1/hCD137 cells, goat anti-human FITC; antibody at 83.33333333 nM
[6] = target: T4, 人CD137全长 (SEQ ID No.19)，表达于细胞; experiment: flow cytometry (FACS) on CHO-K1/hCD137 cells, goat anti-human FITC; antibody at 3.086419753 nM
[7] = target: T4, 人CD137全长 (SEQ ID No.19)，表达于细胞; experiment: flow cytometry (FACS) on CHO-K1/hCD137 cells, goat anti-human FITC; antibody at 0.342935528 nM
[8] = target: T4, 人CD137全长 (SEQ ID No.19)，表达于细胞; experiment: flow cytometry (FACS) on CHO-K1/hCD137 cells, goat anti-human FITC; antibody at 1.028806584 nM
[9] = target: T4, 人CD137全长 (SEQ ID No.19)，表达于细胞; experiment: flow cytometry (FACS) on CHO-K1/hCD137 cells, goat anti-human FITC; 4-parameter logistic fit
[10] = target: T4, 人CD137全长 (SEQ ID No.19)，表达于细胞; experiment: flow cytometry (FACS) on CHO-K1/hCD137 cells, goat anti-human FITC; antibody at 9.259259259 nM
[11] = target: T4, 人CD137全长 (SEQ ID No.19)，表达于细胞; experiment: flow cytometry (FACS) on CHO-K1/hCD137 cells, goat anti-human FITC; antibody at 250 nM
猴PD-L1胞外段 (SEQ ID No.23) = target: T5, 猴PD-L1胞外段 (SEQ ID No.23) (monkey, UniProt Q9NZQ7 19-238 (human entry)); experiment: ELISA, monkey PD-L1 extracellular domain coated, goat anti-human HRP
T5 construct: Expressed in HEK293; no tag is stated; also called 猴PD-L1抗原

猴CD137胞外段 (SEQ ID No.20) = target: T6, 猴CD137胞外段 (SEQ ID No.20) (monkey, UniProt Q07011 24-186 (human entry)); experiment: ELISA, monkey CD137 extracellular domain coated, goat anti-human HRP
T6 construct: Expressed in HEK293; no tag is stated; also called 猴CD137抗原
T6 chain: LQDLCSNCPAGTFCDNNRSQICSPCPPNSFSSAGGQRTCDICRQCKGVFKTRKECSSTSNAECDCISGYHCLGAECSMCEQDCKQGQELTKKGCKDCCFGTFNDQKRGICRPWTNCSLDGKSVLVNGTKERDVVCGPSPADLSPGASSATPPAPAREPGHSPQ

T4 sequence (Q07011 24-255 limits assumed): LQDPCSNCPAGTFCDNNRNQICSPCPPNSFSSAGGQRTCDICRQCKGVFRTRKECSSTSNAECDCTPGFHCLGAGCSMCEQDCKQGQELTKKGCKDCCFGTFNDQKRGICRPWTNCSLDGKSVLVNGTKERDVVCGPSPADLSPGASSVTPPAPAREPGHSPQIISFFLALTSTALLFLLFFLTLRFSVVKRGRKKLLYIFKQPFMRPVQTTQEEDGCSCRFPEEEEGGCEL
T2 sequence (Q9NZQ7 19-290 limits assumed): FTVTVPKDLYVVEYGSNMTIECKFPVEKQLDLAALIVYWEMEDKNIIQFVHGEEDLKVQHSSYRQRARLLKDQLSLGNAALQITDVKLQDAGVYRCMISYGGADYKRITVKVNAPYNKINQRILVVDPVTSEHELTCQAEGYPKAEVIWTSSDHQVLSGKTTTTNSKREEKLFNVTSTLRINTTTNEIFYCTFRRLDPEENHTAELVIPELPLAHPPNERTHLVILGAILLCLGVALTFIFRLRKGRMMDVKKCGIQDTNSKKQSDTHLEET
T3 sequence (Q9NZQ7 19-238): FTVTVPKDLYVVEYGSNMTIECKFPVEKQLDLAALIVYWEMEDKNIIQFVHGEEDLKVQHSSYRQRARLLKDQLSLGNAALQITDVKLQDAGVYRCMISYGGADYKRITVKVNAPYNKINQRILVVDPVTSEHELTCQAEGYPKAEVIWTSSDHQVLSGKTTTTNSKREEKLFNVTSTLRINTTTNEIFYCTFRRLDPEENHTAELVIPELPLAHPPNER
T1 sequence (Q9NZQ7 19-238): as above
T5 sequence (Q9NZQ7 other isoform, or with tags, fused parts or gaps): as the sequence (Q9NZQ7 19-238) above, with A33T, A34S, S62N, R68Q, Q82R, F173L, T185A, T192I, H215L counted along it

B1: 抗人PD-L1/CD137双特异性抗体 结构B (1st scFv-L1-Fc-L2-2nd Fab) (bispecific antibody, human IgG4 S228P, kappa, F234A L235A)
heavy: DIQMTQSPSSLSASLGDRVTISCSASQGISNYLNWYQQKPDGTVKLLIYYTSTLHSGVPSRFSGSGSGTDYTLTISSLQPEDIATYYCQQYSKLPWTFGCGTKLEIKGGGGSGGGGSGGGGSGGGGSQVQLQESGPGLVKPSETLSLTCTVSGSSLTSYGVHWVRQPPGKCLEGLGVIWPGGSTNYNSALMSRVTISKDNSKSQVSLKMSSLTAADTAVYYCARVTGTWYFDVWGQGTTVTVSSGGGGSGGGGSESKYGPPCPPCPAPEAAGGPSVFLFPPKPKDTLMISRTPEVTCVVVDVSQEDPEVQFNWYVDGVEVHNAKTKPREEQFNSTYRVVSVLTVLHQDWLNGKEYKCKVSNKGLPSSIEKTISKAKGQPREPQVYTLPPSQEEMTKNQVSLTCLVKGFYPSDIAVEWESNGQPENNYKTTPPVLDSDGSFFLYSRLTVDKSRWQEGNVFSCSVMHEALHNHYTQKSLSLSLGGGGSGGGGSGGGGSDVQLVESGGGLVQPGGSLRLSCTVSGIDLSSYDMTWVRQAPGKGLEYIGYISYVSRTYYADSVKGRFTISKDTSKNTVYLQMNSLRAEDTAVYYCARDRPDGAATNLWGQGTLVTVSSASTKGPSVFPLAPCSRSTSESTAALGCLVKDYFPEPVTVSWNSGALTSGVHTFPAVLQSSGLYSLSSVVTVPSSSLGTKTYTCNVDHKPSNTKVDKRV
light: DIQMTQSPSTLSASVGDRVTITCQSSQNVYSNNRLSWYQQKPGKAPKLLIYWTSFLASGVPSRFSGSGSGTEFTLTISSLQPDDFATYYCAGGYSGNLYTFGQGTKLEIKRTVAAPSVFIFPPSDEQLKSGTASVVCLLNNFYPREAKVQWKVDNALQSGNSQESVTEQDSKDSTYSLSSTLTLSKADYEKHKVYACEVTHQGLSSPVTKSFNRGEC
notes: Anti-CD137 scFv at the N-terminus of human IgG4 Fc, anti-PD-L1 Fab at its C-terminus; also called B结构
What does the source list for B1?
binding result [1]: binds; binding result [2]: binds; binding result [3]: binds; FACS signal (read-out name not given) [4]: 12100; FACS signal (read-out name not given) [5]: 16100; FACS signal (read-out name not given) [6]: 4096; FACS signal (read-out name not given) [7]: 2680; FACS signal (read-out name not given) [8]: 3020; EC50 [9]: 0.0144 µM; FACS signal (read-out name not given) [10]: 8000; FACS signal (read-out name not given) [11]: 16200

B2: 抗人PD-L1/CD137双特异性抗体 结构D3 (D1的突变分子) (bispecific antibody, human IgG4 S228P, kappa, F234A L235A)
heavy: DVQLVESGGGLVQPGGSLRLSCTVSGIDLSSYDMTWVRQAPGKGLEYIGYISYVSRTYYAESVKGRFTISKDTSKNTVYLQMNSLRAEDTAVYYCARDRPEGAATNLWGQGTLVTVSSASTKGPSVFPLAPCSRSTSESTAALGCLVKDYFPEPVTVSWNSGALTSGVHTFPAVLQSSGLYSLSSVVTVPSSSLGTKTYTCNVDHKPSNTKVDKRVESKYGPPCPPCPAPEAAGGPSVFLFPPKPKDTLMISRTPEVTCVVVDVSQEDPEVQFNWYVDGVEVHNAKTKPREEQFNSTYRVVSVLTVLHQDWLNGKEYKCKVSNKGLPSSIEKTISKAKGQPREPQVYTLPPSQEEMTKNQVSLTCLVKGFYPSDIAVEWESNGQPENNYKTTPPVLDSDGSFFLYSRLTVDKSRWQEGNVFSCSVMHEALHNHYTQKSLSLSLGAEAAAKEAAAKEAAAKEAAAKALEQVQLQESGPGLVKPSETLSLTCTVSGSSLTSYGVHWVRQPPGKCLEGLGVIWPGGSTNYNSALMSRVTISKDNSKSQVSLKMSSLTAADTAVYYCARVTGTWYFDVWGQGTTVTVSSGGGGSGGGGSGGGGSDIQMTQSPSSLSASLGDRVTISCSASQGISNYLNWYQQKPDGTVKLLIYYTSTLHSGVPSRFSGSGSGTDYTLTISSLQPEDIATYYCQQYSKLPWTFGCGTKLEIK
light: DIQMTQSPSTLSASVGDRVTITCQSSQNVYSNNRLSWYQQKPGKAPKLLIYWTSFLASGVPSRFSGSGSGTEFTLTISSLQPDDFATYYCAGGYSGNLYTFGQGTKLEIKRTVAAPSVFIFPPSDEQLKSGTASVVCLLNNFYPREAKVQWKVDNALQSGNSQESVTEQDSKDSTYSLSSTLTLSKADYEKHKVYACEVTHQGLSSPVTKSFNRGEC
notes: Mutant of D1; also called D3结构
Which “FACS signal (read-out name not given)” value [4] does the source give for B2 here?
Its value is 14600.

What about the “FACS signal (read-out name not given)” value [5] of the same binder?
The value was 16700.

And the “FACS signal (read-out name not given)” value [6]?
The value was 2920.

And the “FACS signal (read-out name not given)” value [7]?
Its value is 2590.

What about the “FACS signal (read-out name not given)” value [8] of the same binder?
Its value is 2620.

And the EC50 [9]?
Its EC50 is 0.0124 µM.

What about the “FACS signal (read-out name not given)” value [10] of the same binder?
The value was 7390.

And the “FACS signal (read-out name not given)” value [11]?
The value was 16600.

B3: 抗人PD-L1/CD137双特异性抗体 结构D6 (D2的突变分子) (bispecific antibody, human IgG4 S228P, kappa, F234A L235A)
heavy: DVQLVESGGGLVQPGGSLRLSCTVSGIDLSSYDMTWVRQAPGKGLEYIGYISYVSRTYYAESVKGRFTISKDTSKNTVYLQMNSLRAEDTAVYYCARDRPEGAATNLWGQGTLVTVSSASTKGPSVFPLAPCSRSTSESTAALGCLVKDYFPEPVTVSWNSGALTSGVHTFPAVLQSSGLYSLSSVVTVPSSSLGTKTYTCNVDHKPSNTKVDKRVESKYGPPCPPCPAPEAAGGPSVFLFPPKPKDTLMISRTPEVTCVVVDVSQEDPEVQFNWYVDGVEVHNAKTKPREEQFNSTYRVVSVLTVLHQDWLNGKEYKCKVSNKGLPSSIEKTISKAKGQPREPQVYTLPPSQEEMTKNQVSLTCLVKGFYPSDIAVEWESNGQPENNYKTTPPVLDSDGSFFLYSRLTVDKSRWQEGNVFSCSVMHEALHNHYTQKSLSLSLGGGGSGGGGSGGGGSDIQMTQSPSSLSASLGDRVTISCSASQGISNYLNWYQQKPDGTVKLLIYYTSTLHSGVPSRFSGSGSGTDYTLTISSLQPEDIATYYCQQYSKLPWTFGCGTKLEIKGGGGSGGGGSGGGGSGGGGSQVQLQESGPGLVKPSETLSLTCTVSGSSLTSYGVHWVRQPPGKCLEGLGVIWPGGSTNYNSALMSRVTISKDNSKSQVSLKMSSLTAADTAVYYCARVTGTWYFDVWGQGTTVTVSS
light: DIQMTQSPSTLSASVGDRVTITCQSSQNVYSNNRLSWYQQKPGKAPKLLIYWTSFLASGVPSRFSGSGSGTEFTLTISSLQPDDFATYYCAGGYSGNLYTFGQGTKLEIKRTVAAPSVFIFPPSDEQLKSGTASVVCLLNNFYPREAKVQWKVDNALQSGNSQESVTEQDSKDSTYSLSSTLTLSKADYEKHKVYACEVTHQGLSSPVTKSFNRGEC
notes: Mutant of D2; also called D6结构
Does B3 bind [1]?
Result: binds

Does B3 bind [2]?
Result: binds

Does B3 bind [3]?
Result: binds

What about the “FACS signal (read-out name not given)” value [4] of the same binder?
Its value is 11100.

And the “FACS signal (read-out name not given)” value [5]?
The value was 15400.

And the “FACS signal (read-out name not given)” value [6]?
Its value is 3930.

Does B3 bind (猴PD-L1胞外段 (SEQ ID No.23))?
Result: binds

What about the “FACS signal (read-out name not given)” value [7] of the same binder?
Its value is 2620.

And the “FACS signal (read-out name not given)” value [8]?
Its value is 2770.

What about the EC50 [9] of the same binder?
The EC50 was 0.0164 µM.

And the “FACS signal (read-out name not given)” value [10]?
The value was 7030.

What about the “FACS signal (read-out name not given)” value [11] of the same binder?
Its value is 15300.

Does B3 bind (猴CD137胞外段 (SEQ ID No.20))?
Result: binds
